This experiment deals with T1, YbbP (E. coli, UniProt P77504 1-804).
T1 sequence: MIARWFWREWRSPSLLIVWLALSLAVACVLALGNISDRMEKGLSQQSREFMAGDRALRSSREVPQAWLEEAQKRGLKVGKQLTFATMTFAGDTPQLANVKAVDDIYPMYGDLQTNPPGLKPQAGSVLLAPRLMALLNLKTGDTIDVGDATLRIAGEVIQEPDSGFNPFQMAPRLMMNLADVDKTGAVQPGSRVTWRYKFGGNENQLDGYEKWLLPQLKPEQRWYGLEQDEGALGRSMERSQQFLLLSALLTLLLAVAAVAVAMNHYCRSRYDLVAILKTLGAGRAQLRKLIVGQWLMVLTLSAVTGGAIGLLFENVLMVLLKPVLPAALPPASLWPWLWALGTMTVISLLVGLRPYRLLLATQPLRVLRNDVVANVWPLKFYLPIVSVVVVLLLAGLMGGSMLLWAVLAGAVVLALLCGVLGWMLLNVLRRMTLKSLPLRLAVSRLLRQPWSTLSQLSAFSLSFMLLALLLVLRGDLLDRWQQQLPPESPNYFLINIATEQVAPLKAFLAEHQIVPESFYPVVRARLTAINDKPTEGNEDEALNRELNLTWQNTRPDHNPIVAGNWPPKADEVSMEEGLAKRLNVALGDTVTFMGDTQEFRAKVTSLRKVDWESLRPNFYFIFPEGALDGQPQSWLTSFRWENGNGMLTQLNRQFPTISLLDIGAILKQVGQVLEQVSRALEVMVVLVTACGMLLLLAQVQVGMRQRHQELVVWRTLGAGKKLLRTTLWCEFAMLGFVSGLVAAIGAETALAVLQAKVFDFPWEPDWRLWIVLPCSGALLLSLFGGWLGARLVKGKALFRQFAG
The experiment in a line: cryo-EM structure.

The values below come from doi:10.1101/2025.05.16.654284 (bioRxiv, 2025).

B1: TesA Ser36Ala (enzyme, E. coli, UniProt P0ADA1 27-208, looked up)
chain: ADTLLILGDALSAGYRMSASAAWPALLNDKWQSKTSVVNASISGDTSQQGLARLPALLKQHQPRWVLVELGGNDGLRGFQPQQTEQTLRQILQDVKAANAEPLLMQIRLPANYGRRYNEAFSAIYPKLAKEFDVPLLPFFMEEVYLKPQWMQDDGIHPNRDAQPFIADWMAKQLQPLVNHDS
B1: the stoichiometry N (as a rule, a count of units in the complex or per binding partner) was 1.

B2: YbbA (natural protein, E. coli)
chain: MPAENIVEVHHLKKSVGQGEHELSILTGVELVVKRGETIALVGESGSGKSTLLAILAGLDDGSSGEVSLVGQPLHNMDEEARAKLRAKHVGFVFQSFMLIPTLNALENVELPALLRGESSAESRNGAKALLEQLGLGKRLDHLPAQLSGGEQQRVALARAFNGRPDVLFADEPTGNLDRQTGDKIADLLFSLNREHGTTLIMVTHDLQLAARCDRCLRLVNGQLQEEA
As to B2, the “stoichiometry N” value is 2.
